Assay results from patent US8969034B2, “Endoglycosidases that cleave O-linked glycans” (New England Biolabs, Inc., priority 2008, dated 2015).

B1: EngPA: recombinant endo-α-GalNAcase of Propionibacterium acnes (protein)
chain: MSRTPRGRSIGALAVSAGTMLALIAPTAPAHAETRYRQINQAAITAVAADSATATDPISNTLDGNPDTIWHTTWQNGKDPLPHWIVFKLGDEAVNLGKVEITPRSSSNGSGRMHDYELYTANTKTCNNAAFSSAKPVATGSYGASDTSIRKITFAATKATCVKVKVNSSWGGDGSDEEVSSMAEFNAFTVDGSDPSPDPTPSEPPTPEVPKDAISLSDGTVTVRARRDFPQVIDYTVGHAHMAGRIGSPLTKVRINGADHVATVSAPTTTGSSASWKLTFRDLPGVELTADIKVSDGVMTWSIPHIVDTPDHRVNTVSVPGLTLASVTSTDPKAQLSSANIVVDRNKTGDLFQPLATADVSQDTSWVAMANDSTLAAGFEDNATQDGLVGSAATVARFVHSISQVGGTKVGAIEPATWVHRGKGSATPFPTDSLGNKAVCQLPGGATVKDGIGPDPDTPYVRVKIVADANADGKVDWQDAAVATRDVTMKPTGSGDVANKVITHIPFNIVSQATHPFLRTLDDVKRISLATDGLGQQALLKGYQAEGHDSAHPDYGGNVSHRAGGMKDLEKLTESGRQWNTDFGIHVNLVESYPEANHFGDNILVKPYQKAWDWMEQSYRMDYAKDLGSGQLFARLNQLRKELGAKSNLDWLYFDTNYPAGWQNDRIANALNAEGWRIGSEWSSTYPRYNQWSHWANDENYGTGNKGYSSRIIRFIDNSRRDTWNPDPILGNSNVVEYEGWTSHNDYNAFIANVWQRNLPTKFLQRSDIMSWQDGRIAFANGAVATSSKKSISGHEIPTARTITFDGATVFKEGGSYLLPWSNGGSDRLYYWNPGNGSATWKLTNSWAAQKSVSLFMLTDTGRVKVAEIPVTNRSIRIPATKAKTAYVLYPTSKVPAAKTPNWGEGSHFANPGFYSGDTAGWNARGNVSVKHNDRGNFHLEFGKAQSQISQVLNLPAGDHSLWAWVQIDPTKTRPVGLAVDGTGVTPIDHQKGCGGHAESVITSTTAINATASDEYFGTYHQRLRVAFHSDGRPVTVTLKALAGNAIVSADDFRVVDAAVPSDPHVTPATVLFQNFEDVDTGYWPFVTGSAGMEGDARTQLSRRHEPYTQKGWNGRAMDSVLSGDWSLKMHEERNGIVLRTTTASAPLTGGGTRYRISFDYQADKPGYSFVTGHDKVSGKSVKEVITESHAMGVATSTTHFSTDIVVKDQPAWIGFTHQGEGDMSIDNLRIEKLDPRPISVTSTQAAVFPDACKPTPEPIQPAQPSASAPTTSGSPQAPGTGNRPNRYALPRTGADGAGLGFSSSEAASATAAVGVSRQGR
modifications: Propionibacterium acnes
B2: EngEF: recombinant endo-α-GalNAcase (O-glycosidase) of Enterococcus faecalis (protein, listed as Enterococcus faecalis)
chain: MKHGKIKRFSTLTLLASATILVPLSTSAEETTNSSTETSSSMVEPTATEEKLWQSDFPGGKTGEWQDVIGKTNRELAGESLAISRDAAAGNNAVSLNLDSPKLADGEVETKFKYTAGSGRTGVIIRGNTKDSWVFVGYNANGKWLVESPNSWNDSISGPTLNEDTNYLLKVRYVGEKITIWLNTTLIYEGEPVLANGDKIPTEAGHVGVRLWYDKKIVNYDYFKNGPVDSIPEIVPEVTQIAPVKVFTKIGVAPKLPKQVKVTYNTGKEANEAVRWNEIDPDAYKEPGTFEVDGTLENTNIKAKASIVVAKDNEAEKGDKISSADLTAVVDPQFPRIIRYEDPQSNQVIFNGQHEKIDQVMIDGKAYKATAEKQKSEANQAVYNVAVPEIGLRFTTTLTVSEGQELAMKLSDIREEGTKIHTISIPNQGLISVNSTDEGATFAGVVMNTGTNANNGNKNGDTIQDLTTTSQEETKKYMYGFLNTANYAASFWTNAYGDGSVDGSDNNRIHKQTKEAATGFVTTLSSGAWTYRPFDAPEDYTTGETPEVKVKFSKDSNDDNRVDWQDAAIGFRSIMNNPMGAEKVPELVNQRIPFNFASQATNPFLVTLDESKRIYNLTDGLGQMNLLKGYQNEGHDSAHPDYGAIGQRPGGEQALNQLIDEGHKLNAVFGVHINDTESYPEAKGFNEELVDPTKRGWDWLDPSYFIKQRPDTLSGRRYERFKELKQKAPNLDYIYVDVWGNQGESGWASRQLSKEINSLGWFTTNEFPNALEYDSVWNHWSAEKDYGGTTTKGFNSTIVRFIRNHQKDTWIISDNPLLGGAEFEAYEGWVGKTNFNTYRQKTFAINVPTKFLQHYQITNWETTTAADGQIYGTIKLANGAEKVTVTQADANSPRSITLNETEVLKGDAYLLPWNVNGQDKLYHWNPKGGTSTWSLDKKMQGKTNLHLYELTDQGRIDKGAIATTNNQVTIQAEANTPYVIAEPDSIEPMTFGTGTPFKDPGFNEANTLKNNWKVFRGDGEVKKDANGDYVFSSEKERTEIKQDINLPKPGKYSLYLNTETHDRKATVTVKIGGKKYTRTVNNSVAQNYIQADINHTSRKNPQYMQNMRIDFEIPDNAKKGSVTLAVDKGNSVTKFDDLRIVERQTDIMNPDKQTVIKQDFEDTQAVGLYPFVKGSAGGVEDPRIHLSERNEPYTQYGWNGNLVSDVLEGNWSLKAHKQGAGLMLQTIPQNIKFEPNKKYTVQFDYQTDGENVFTAGTINGELKNNNDFKPVGELTSTAADGQTKHYEAEIIGDASGNTTFGIFTTGADKDFIMDNFTVTVESKK

Columns and labels:
[1] = system: CC(=O)N[C@H]1[C@H](O[C@H]2[C@@H](O)[C@@H](CO)O[C@H](Oc3ccc([N+](=O)[O-])cc3)[C@@H]2NC(C)=O)O[C@H](CO)[C@@H](O)[C@@H]1O; experiment: purified protein, by the assay type; settings: other: Core 3 substrate, 25° C., average of three measurements
[2] = target: Propionibacterium acnes endo-α-GalNAcase EngPA (YP_056270.1), SEQ ID NO:3 (Cutibacterium acnes, UniProt A0ABM7H013); experiment: Steady-state enzyme kinetics of EngPA; settings: EngPA compared with EngEF
[3] = system: CC(=O)N[C@H]1[C@@H](Oc2ccc([N+](=O)[O-])cc2)O[C@H](CO)[C@H](O)[C@@H]1O[C@@H]1O[C@H](CO)[C@H](O)[C@H](O)[C@H]1O; experiment: purified protein, by the assay type; settings: 25.0 °C
[4] = Hydrolysis of pNP substrates, colorimetric assay (Galβ1,3GlcNAc); assay type: biochemical
[5] = Hydrolysis of pNP substrates, colorimetric assay (Core 1); assay type: biochemical; settings: Galβ1,3GalNAcα1pNP Core 1, 0.25 mM substrate, 25° C., 16 h, 405 nm
[6] = Transglycosylation to 1-alkanols, Core 3 donor (TLC); assay type: biochemical; settings: 0.8 mM GlcNAcβ1,3GalNAcα1ρNP donor, 1-alkanols as acceptors, room temperature, 16 h
Excerpt: The transglycosylation activity can be similarly determined for EngAA*.

[7] = Hydrolysis of pNP substrates, colorimetric assay (Core 3); assay type: biochemical
[8] = Hydrolysis of pNP substrates, colorimetric assay (Core 2); assay type: biochemical; settings: Galβ1,3(GlcNAcβ1,6)GalNAcα1pNP Core 2, 25° C., 16 h, 405 nm
[9] = Hydrolysis of pNP substrates, colorimetric assay (GalNAc); assay type: biochemical; settings: GalNAcα1pNP, 25° C., 16 h, 405 nm
[10] = system: Bifidobacterium longum endo-α-GalNAcase EngBF, SEQ ID NO:5; settings: Core 1 substrate; data from Fujita et al. (2005); cited from earlier work

Row | Molecule | % product released [4] [%] | % product released [5] [%] | transglycosylation products [6] | % product released [7] [%] | % product released [8] [%] | % product released [9] [%] | also measured
1 | Propionibacterium acnes endo-α-GalNAcase EngPA (YP_056270.1), SEQ ID NO:3 (Cutibacterium acnes subsp. acnes) | – | – | – | – | – | – | kcat [1]: 28.9 s⁻¹
2 | CC(=O)N[C@H]1[C@H](O[C@H]2[C@@H](O)[C@@H](CO)O[C@H](Oc3ccc([N+](=O)[O-])cc3)[C@@H]2NC(C)=O)O[C@H](CO)[C@@H](O)[C@@H]1O [GlcNAcβ1,3GalNAcα1ρNP] | – | – | – | – | – | – | kcat, times higher than EngEF ([2]; Core 3 substrate): 3 times
3 | Clostridium perfringens endo-α-GalNAcase EngCP (YP_695137.1), SEQ ID NO:6 (Clostridium perfringens ATCC 13124) | – | – | – | – | – | – | Km [3]: 70.93 µM; kcat [3]: 19.9 s⁻¹
4 | Enterococcus faecalis endo-α-GalNAcase EngEF (NP_815498.1), SEQ ID NO:2 (Enterococcus faecalis V583) | – | – | – | – | – | – | kcat [1]: 9.43 s⁻¹
5 | EngSP: endo-α-GalNAcase from Streptococcus pneumoniae, purchased from Roche [reference compound] | 0 | 100 | no significant difference | 3 | 0.6 | 1.2 | –
6 | CC(=O)N[C@H]1[C@@H](Oc2ccc([N+](=O)[O-])cc2)O[C@H](CO)[C@H](O)[C@@H]1O[C@@H]1O[C@H](CO)[C@H](O)[C@H](O)[C@H]1O [Galβ1,3GalNAcα1ρNP] | – | – | – | – | – | – | kcat, times lower than EngEF ([2]; Core 1 substrate): about 25 times; Km [10]: 21.8 µM; kcat [10]: 17.8 s⁻¹
7 | B1 | 0 | 100 | no significant difference | 100 | 0 | 1.8 | hydrolysis of the Core 3 disaccharide (in words) [7]: fully hydrolyzing
8 | B2 | 0 | 100 | no significant difference | 100 | 2 | 2.2 | hydrolysis of the Core 3 disaccharide (in words) [7]: fully hydrolyzing
